According to patent US20240344138A1, “TARGETED THERAPIES IN CANCER” (Feng Biosciences, Inc, priority 2021, published 2024):

Tests used:
[1] = system: platinum-resistant or platinum-sensitive recurrent ovarian cancer; assay: Clinical trial of PARP inhibitor and navicixizumab in PARP naive and PARP resistant cohorts, ORR by TME phenotype; type: in vivo, human
Experimental: A clinical trial is run to determine whether ovarian cancer tumor microenvironment phenotypes correlate to clinical responses when patients are treated with a PARP inhibitor, and navicixizumab in PARP naïve patients or patients that previously progressed on PARP inhibitor. The analysis includes samples from two different cohorts (one consisting of PARP inhibitor naïve patients and one consisting of PARP resistant patients). 40 patients from each cohort are randomized to 2 different treatment arms (20 patients in each arm). Patients are randomized to receive either a PARP inhibitor in combination with navicixizumab or PARP inhibitor monotherapy (PARP naïve cohort) or PARP inhibitor in combination with navicixizumab or navicixizumab monotherapy (PARP resistant). RNA gene signatures are analyzed from tumor samples acquired before the treatments and TME phenotypes are determined. Patients are followed for clinical response.
Ovarian cancer patients are randomized to receiving a regimen of PARP inhibitor (Olaparib, Rucaparib, Niraparib, etc.) plus navicixizumab, PARP monotherapy (PARP naive) or Navicixizumab monotherapy. The combination of PARP inhibitor/Navicixizumab increases overall response rate in patients with recurrent ovarian cancer compared to navicixizumab alone in both the PARP naive and PARP resistant cohorts as shown in TABLE 35. […] Eighty (80) total patients are enrolled, 20 in each of the treatment groups across the two cohorts with equal representation across the 4 stromal phenotypes (5 in each phenotype per treatment group). The correlation between each TME phenotype is tested against clinical outcome data. In immune suppressed (IS), and angiogenic (A) patients the use of the regimen of PARPi/Navicixizumab confers benefit in comparison to patients classified to immune active (IA) and immune desert (ID) TME phenotype classes as shown in the TABLE 36.

[2] = system: platinum-resistant or platinum-sensitive recurrent triple negative breast cancer; assay: Clinical trial of PARP inhibitor, immune checkpoint inhibitor and navicixizumab, ORR by TME phenotype; type: in vivo, human
Experimental: A clinical trial is run to determine whether the triple negative breast cancer (TNBC) tumor microenvironment phenotypes correlate to clinical responses when patients are treated with a PARP inhibitor, an immune checkpoint inhibitor, and Navicixizumab after recurrence on platinum-based chemotherapy. The analysis includes samples from two different cohorts (one consisting of platinum-sensitive patients and one consisting of platinum-resistant patients). 40 patients from each cohort are randomized to 2 different treatment arms (20 patients in each arm). Patients are randomized to receive either (i) a PARP inhibitor and an immune checkpoint inhibitor or (ii) a PARP inhibitor, an immune checkpoint inhibitor and Navicixizumab. RNA gene signatures are analyzed from tumor samples acquired before the treatments and TME phenotypes are determined. Patients are followed for clinical response.
TNBC patients are randomized to receiving a regimen of PARP inhibitor (olaparib, rucaparib, niraparib, etc.) plus an immune checkpoint inhibitor (anti-PD-(L)1—i.e., an inhibitor to PD-1 or PD-L1) therapy, or a regimen of PARP inhibitor/immune checkpoint inhibitor/Navicixizumab. The combination of PARP inhibitor/immune checkpoint inhibitor/Navicixizumab increases overall response rate in patients with TNBC compared to the regimen of PARP inhibitor/immune checkpoint inhibitor alone in both the platinum-sensitive and platinum-resistant cohorts as shown in TABLE 37. […] Eighty (80) total patients are enrolled, 20 in each of the treatment groups across the two cohorts with equal representation across the 4 stromal phenotypes (5 in each phenotype per treatment group). The correlation between each TME phenotype is tested against clinical outcome data. In immune active (IA), immune suppressed (IS), and angiogenic (A) patients the use of the regimen of PARPi/immune checkpoint inhibitor/Navicixizumab confers benefit in comparison to patients classified to immune desert (ID) TME phenotype classes as shown in the TABLE 38.

[3] = PARP resistant cohort, n = 20 per treatment group

B1: PARPi/Navicixizumab (antibody, chains of the INN, looked up, V domains shown)
VH: QVQLVQSGAEVKKPGASVKISCKASGYSFTAYYIHWVKQAPGQGLEWIGYISNYNRATNYNQKFKGRVTFTTDTSTSTAYMELRSLRSDDTAVYYCARDYDYDVGMDYWGQGTLVTVSS
VL: DIVMTQSPDSLAVSLGERATISCRASESVDNYGISFMKWFQQKPGQPPKLLIYAASNQGSGVPDRFSGSGSGTDFTLTISSLQAEDVAVYYCQQSKEVPWTFGGGTKVEIK
VH2: QVQLVQSGAEVKKPGASVKVSCKASGYTFTNYWMHWVRQAPGQGLEWMGDINPSNGRTSYKEKFKRRVTLSVDKSSSTAYMELSSLRSEDTAVYFCTIHYDDKYYPLMDYWGQGTLVTVSS
VL2: DIVMTQSPDSLAVSLGERATISCRASESVDNYGISFMKWFQQKPGQPPKLLIYAASNQGSGVPDRFSGSGSGTDFTLTISSLQAEDVAVYYCQQSKEVPWTFGGGTKVEIK
modifications: with PARP inhibitor
Overall response rate (ORR) ([1]; PARP naiive cohort, n = 20 per treatment group): 65%
Overall response rate (ORR) [1, 3]: 40%

B2: PARPi/Navicixumab (antibody, chains of the INN, looked up, V domains shown)
VH: QVQLVQSGAEVKKPGASVKISCKASGYSFTAYYIHWVKQAPGQGLEWIGYISNYNRATNYNQKFKGRVTFTTDTSTSTAYMELRSLRSDDTAVYYCARDYDYDVGMDYWGQGTLVTVSS
VL: DIVMTQSPDSLAVSLGERATISCRASESVDNYGISFMKWFQQKPGQPPKLLIYAASNQGSGVPDRFSGSGSGTDFTLTISSLQAEDVAVYYCQQSKEVPWTFGGGTKVEIK
VH2: QVQLVQSGAEVKKPGASVKVSCKASGYTFTNYWMHWVRQAPGQGLEWMGDINPSNGRTSYKEKFKRRVTLSVDKSSSTAYMELSSLRSEDTAVYFCTIHYDDKYYPLMDYWGQGTLVTVSS
VL2: DIVMTQSPDSLAVSLGERATISCRASESVDNYGISFMKWFQQKPGQPPKLLIYAASNQGSGVPDRFSGSGSGTDFTLTISSLQAEDVAVYYCQQSKEVPWTFGGGTKVEIK
modifications: with PARP inhibitor
Overall response rate (ORR) ([1]; PARP naive cohort, TME phenotype A (n = 5)): 100
Overall response rate (ORR) ([1]; PARP naive cohort, TME phenotype IA (n = 5)): 40
Overall response rate (ORR) ([1]; PARP naive cohort, TME phenotype ID (n = 5)): 40
Overall response rate (ORR) ([1]; PARP naive cohort, TME phenotype IS (n = 5)): 80
Overall response rate (ORR) ([1]; PARP resistant cohort, TME phenotype A (n = 5)): 60
Overall response rate (ORR) ([1]; PARP resistant cohort, TME phenotype IA (n = 5)): 20
Overall response rate (ORR) ([1]; PARP resistant cohort, TME phenotype ID (n = 5)): 20
Overall response rate (ORR) ([1]; PARP resistant cohort, TME phenotype IS (n = 5)): 60

B3: PARPi/immune checkpoint inhibitor/Navicixumab (antibody, chains of the INN, looked up, V domains shown)
VH: QVQLVQSGAEVKKPGASVKISCKASGYSFTAYYIHWVKQAPGQGLEWIGYISNYNRATNYNQKFKGRVTFTTDTSTSTAYMELRSLRSDDTAVYYCARDYDYDVGMDYWGQGTLVTVSS
VL: DIVMTQSPDSLAVSLGERATISCRASESVDNYGISFMKWFQQKPGQPPKLLIYAASNQGSGVPDRFSGSGSGTDFTLTISSLQAEDVAVYYCQQSKEVPWTFGGGTKVEIK
VH2: QVQLVQSGAEVKKPGASVKVSCKASGYTFTNYWMHWVRQAPGQGLEWMGDINPSNGRTSYKEKFKRRVTLSVDKSSSTAYMELSSLRSEDTAVYFCTIHYDDKYYPLMDYWGQGTLVTVSS
VL2: DIVMTQSPDSLAVSLGERATISCRASESVDNYGISFMKWFQQKPGQPPKLLIYAASNQGSGVPDRFSGSGSGTDFTLTISSLQAEDVAVYYCQQSKEVPWTFGGGTKVEIK
modifications: with PARP inhibitor and checkpoint inhibitor
Overall response rate (ORR) ([2]; Platinum-resistant cohort, TME phenotype A (n = 5)): 40
Overall response rate (ORR) ([2]; Platinum-resistant cohort, TME phenotype IA (n = 5)): 60
Overall response rate (ORR) ([2]; Platinum-resistant cohort, TME phenotype ID (n = 5)): 0
Overall response rate (ORR) ([2]; Platinum-resistant cohort, TME phenotype IS (n = 5)): 80
Overall response rate (ORR) ([2]; Platinum-sensitive cohort, TME phenotype A (n = 5)): 100
Overall response rate (ORR) ([2]; Platinum-sensitive cohort, TME phenotype IA (n = 5)): 80
Overall response rate (ORR) ([2]; Platinum-sensitive cohort, TME phenotype ID (n = 5)): 60
Overall response rate (ORR) ([2]; Platinum-sensitive cohort, TME phenotype IS (n = 5)): 80

B4: PARPi/Immune Checkpoint Inhibitor/Navixicizumab (antibody, chains of the INN, looked up, V domains shown)
VH: QVQLVQSGAEVKKPGASVKISCKASGYSFTAYYIHWVKQAPGQGLEWIGYISNYNRATNYNQKFKGRVTFTTDTSTSTAYMELRSLRSDDTAVYYCARDYDYDVGMDYWGQGTLVTVSS
VL: DIVMTQSPDSLAVSLGERATISCRASESVDNYGISFMKWFQQKPGQPPKLLIYAASNQGSGVPDRFSGSGSGTDFTLTISSLQAEDVAVYYCQQSKEVPWTFGGGTKVEIK
VH2: QVQLVQSGAEVKKPGASVKVSCKASGYTFTNYWMHWVRQAPGQGLEWMGDINPSNGRTSYKEKFKRRVTLSVDKSSSTAYMELSSLRSEDTAVYFCTIHYDDKYYPLMDYWGQGTLVTVSS
VL2: DIVMTQSPDSLAVSLGERATISCRASESVDNYGISFMKWFQQKPGQPPKLLIYAASNQGSGVPDRFSGSGSGTDFTLTISSLQAEDVAVYYCQQSKEVPWTFGGGTKVEIK
modifications: with PARP inhibitor and checkpoint inhibitor
Overall response rate (ORR) ([2]; Platinum-resistant cohort, n = 20 per treatment group): 45%

B5: Navixicizumab (antibody, chains of the INN, looked up, V domains shown)
VH: QVQLVQSGAEVKKPGASVKISCKASGYSFTAYYIHWVKQAPGQGLEWIGYISNYNRATNYNQKFKGRVTFTTDTSTSTAYMELRSLRSDDTAVYYCARDYDYDVGMDYWGQGTLVTVSS
VL: DIVMTQSPDSLAVSLGERATISCRASESVDNYGISFMKWFQQKPGQPPKLLIYAASNQGSGVPDRFSGSGSGTDFTLTISSLQAEDVAVYYCQQSKEVPWTFGGGTKVEIK
VH2: QVQLVQSGAEVKKPGASVKVSCKASGYTFTNYWMHWVRQAPGQGLEWMGDINPSNGRTSYKEKFKRRVTLSVDKSSSTAYMELSSLRSEDTAVYFCTIHYDDKYYPLMDYWGQGTLVTVSS
VL2: DIVMTQSPDSLAVSLGERATISCRASESVDNYGISFMKWFQQKPGQPPKLLIYAASNQGSGVPDRFSGSGSGTDFTLTISSLQAEDVAVYYCQQSKEVPWTFGGGTKVEIK
Overall response rate (ORR) [1, 3]: 25%

B6: PARPi/Immune Checkpoint Inhibitor/Navicixizumab (antibody, chains of the INN, looked up, V domains shown)
VH: QVQLVQSGAEVKKPGASVKISCKASGYSFTAYYIHWVKQAPGQGLEWIGYISNYNRATNYNQKFKGRVTFTTDTSTSTAYMELRSLRSDDTAVYYCARDYDYDVGMDYWGQGTLVTVSS
VL: DIVMTQSPDSLAVSLGERATISCRASESVDNYGISFMKWFQQKPGQPPKLLIYAASNQGSGVPDRFSGSGSGTDFTLTISSLQAEDVAVYYCQQSKEVPWTFGGGTKVEIK
VH2: QVQLVQSGAEVKKPGASVKVSCKASGYTFTNYWMHWVRQAPGQGLEWMGDINPSNGRTSYKEKFKRRVTLSVDKSSSTAYMELSSLRSEDTAVYFCTIHYDDKYYPLMDYWGQGTLVTVSS
VL2: DIVMTQSPDSLAVSLGERATISCRASESVDNYGISFMKWFQQKPGQPPKLLIYAASNQGSGVPDRFSGSGSGTDFTLTISSLQAEDVAVYYCQQSKEVPWTFGGGTKVEIK
modifications: with PARP inhibitor and checkpoint inhibitor
Overall response rate (ORR) ([2]; Platinum-sensitive cohort, n = 20 per treatment group): 80%
